# Experimental data taken from paper PMC10397247.
# T1: 4H1985-bH
# T1 chain: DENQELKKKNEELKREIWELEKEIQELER
# T2: 4H850-bH
# T2 chain: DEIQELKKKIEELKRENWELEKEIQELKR
# T3: 4H3175-bH
# T3 chain: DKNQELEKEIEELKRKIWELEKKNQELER
# T4: 4H3974-bH
# T4 chain: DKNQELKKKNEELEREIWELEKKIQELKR
# T5: 4H3381-bH
# T5 chain: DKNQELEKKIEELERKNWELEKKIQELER
# T6: 4H3858-bH
# T6 chain: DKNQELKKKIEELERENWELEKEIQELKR
# T7: 4H1710-bH
# T7 chain: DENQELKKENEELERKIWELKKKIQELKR
# T8: 4H1804-bH
# T8 chain: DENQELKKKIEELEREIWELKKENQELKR
# T9: 4H3628-bH
# T9 chain: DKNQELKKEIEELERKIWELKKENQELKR
# T10: 4H1899-bH
# T10 chain: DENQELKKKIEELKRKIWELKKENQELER
# T11: 4H570-bH
# T11 chain: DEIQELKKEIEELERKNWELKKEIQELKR
# T12: 4H3298-bH
# T12 chain: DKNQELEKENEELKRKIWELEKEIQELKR
# T13: 4H3638-bH
# T13 chain: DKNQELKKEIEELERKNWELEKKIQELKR
# T14: 4H3162-bH
# T14 chain: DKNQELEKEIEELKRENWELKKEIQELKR
# T15: 4H3497-bH
# T15 chain: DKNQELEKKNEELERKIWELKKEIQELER
# T16: 4H3462-bH
# T16 chain: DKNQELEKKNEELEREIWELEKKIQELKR
# T17: 4H3926-bH
# T17 chain: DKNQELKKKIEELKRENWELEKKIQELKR
# T18: 4H3631-bH
# T18 chain: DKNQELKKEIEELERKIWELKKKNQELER
# T19: 4H591-bH
# T19 chain: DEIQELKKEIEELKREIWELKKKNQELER
# T20: 4H3172-bH
# T20 chain: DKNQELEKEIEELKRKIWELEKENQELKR
# T21: 4H626-bH
# T21 chain: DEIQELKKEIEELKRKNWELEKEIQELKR
# T22: 4H3414-bH
# T22 chain: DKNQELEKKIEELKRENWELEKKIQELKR
# T23: 4H3613-bH
# T23 chain: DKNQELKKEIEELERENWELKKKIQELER
# T24: 4H3277-bH
# T24 chain: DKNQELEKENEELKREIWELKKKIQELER
# T25: 4H906-bH
# T25 chain: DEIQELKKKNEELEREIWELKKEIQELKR
# T26: 4H3129-bH
# T26 chain: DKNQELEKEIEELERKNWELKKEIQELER
# T27: 4H584-bH
# T27 chain: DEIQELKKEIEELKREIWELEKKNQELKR
# T28: 4H3817-bH
# T28 chain: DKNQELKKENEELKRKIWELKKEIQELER
# T29: 4H619-bH
# T29 chain: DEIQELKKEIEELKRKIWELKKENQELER
# T30: P4mSN
# T30 chain: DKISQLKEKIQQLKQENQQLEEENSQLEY
# T31: 4H906-bN
# T31 chain: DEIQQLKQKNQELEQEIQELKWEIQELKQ
# T32: 4H850-bA
# T32 chain: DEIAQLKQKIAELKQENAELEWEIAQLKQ
# T33: 4H584-bA
# T33 chain: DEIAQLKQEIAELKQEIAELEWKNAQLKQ
# T34: 4H3638-bA
# T34 chain: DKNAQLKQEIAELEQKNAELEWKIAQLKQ
# T35: 4H3129-bA
# T35 chain: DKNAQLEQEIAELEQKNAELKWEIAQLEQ
# T36: 4H1804-bA
# T36 chain: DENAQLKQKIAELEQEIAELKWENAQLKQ
# T37: 4H3631-bA
# T37 chain: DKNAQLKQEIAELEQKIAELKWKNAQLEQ
# T38: 4H3817-bA
# T38 chain: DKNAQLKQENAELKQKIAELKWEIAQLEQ
# T39: 4H1985-bA
# T39 chain: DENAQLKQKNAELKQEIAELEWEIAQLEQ
# T40: 4H906-bA
# T40 chain: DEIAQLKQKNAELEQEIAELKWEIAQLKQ
# T41: 4H3172-bA
# T41 chain: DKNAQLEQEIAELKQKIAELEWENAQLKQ
# T42: 4H619-bA
# T42 chain: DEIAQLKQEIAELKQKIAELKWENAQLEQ
# T43: 4H570-bA
# T43 chain: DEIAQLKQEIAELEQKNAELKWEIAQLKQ
# T44: 4H3414-bA
# T44 chain: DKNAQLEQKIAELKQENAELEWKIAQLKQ
# T45: 4H3974-bA
# T45 chain: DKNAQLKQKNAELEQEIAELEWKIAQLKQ
# How the values were obtained:
# Assay in all cases: two-hybrid library CCNG1;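 note: natural log of median RNA to DNA barcode read ratio; higher means stronger binding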
# [1] = target: T1, 4H1985-bH
# [2] = target: T2, 4H850-bH
# [3] = target: T3, 4H3175-bH
# [4] = target: T4, 4H3974-bH
# [5] = target: T5, 4H3381-bH
# [6] = target: T6, 4H3858-bH
# [7] = target: T7, 4H1710-bH
# [8] = target: T8, 4H1804-bH
# [9] = target: T9, 4H3628-bH
# [10] = target: T10, 4H1899-bH
# [11] = target: T11, 4H570-bH
# [12] = target: T12, 4H3298-bH
# [13] = target: T13, 4H3638-bH
# [14] = target: T14, 4H3162-bH
# [15] = target: T15, 4H3497-bH
# [16] = target: T16, 4H3462-bH
# [17] = target: T17, 4H3926-bH
# [18] = target: T18, 4H3631-bH
# [19] = target: T19, 4H591-bH
# [20] = target: T20, 4H3172-bH
# [21] = target: T21, 4H626-bH
# [22] = target: T22, 4H3414-bH
# [23] = target: T23, 4H3613-bH
# [24] = target: T24, 4H3277-bH
# [25] = target: T25, 4H906-bH
# [26] = target: T26, 4H3129-bH
# [27] = target: T27, 4H584-bH
# [28] = target: T28, 4H3817-bH
# [29] = target: T29, 4H619-bH
# [30] = target: T30, P4mSN
# [31] = target: T31, 4H906-bN
# [32] = target: T32, 4H850-bA
# [33] = target: T33, 4H584-bA
# [34] = target: T34, 4H3638-bA
# [35] = target: T35, 4H3129-bA
# [36] = target: T36, 4H1804-bA
# [37] = target: T37, 4H3631-bA
# [38] = target: T38, 4H3817-bA
# [39] = target: T39, 4H1985-bA
# [40] = target: T40, 4H906-bA
# [41] = target: T41, 4H3172-bA
# [42] = target: T42, 4H619-bA
# [43] = target: T43, 4H570-bA
# [44] = target: T44, 4H3414-bA
# [45] = target: T45, 4H3974-bA
binder,measurement,setting,value
DENQELKKENEELERKIWELKKKIQELKR [4H1710-bH],interaction score,[1],0.219
same,interaction score,[2],0.221
same,interaction score,[3],0.0594
same,interaction score,[4],0.887
same,interaction score,[5],-1.3
same,interaction score,[6],-0.238
same,interaction score,[7],0.661
same,interaction score,[8],-0.929
same,interaction score,[9],1.35
same,interaction score,[10],0.26
same,interaction score,[11],-0.481
same,interaction score,[12],-0.00934
same,interaction score,[13],-0.567
same,interaction score,[14],-0.655
same,interaction score,[15],0.794
same,interaction score,[16],0.869
same,interaction score,[17],0.806
same,interaction score,[18],0.643
same,interaction score,[19],-1.94
same,interaction score,[20],0.358
same,interaction score,[21],0.853
same,interaction score,[22],-0.234
same,interaction score,[23],-0.955
same,interaction score,[24],0.846
same,interaction score,[25],-0.745
same,interaction score,[26],0.0138
same,interaction score,[27],0.848
same,interaction score,[28],0.823
same,interaction score,[29],0.404
DEIQQLKQKNQELEQEIQELKWEIQELKQ [4H906-bN],interaction score,[30],-1.42
same,interaction score,[31],-0.198
DENAQLKQKIAELEQEIAELKWENAQLKQ [4H1804-bA],interaction score,[32],-0.531
same,interaction score,[33],-0.489
same,interaction score,[34],-0.376
same,interaction score,[35],0.386
same,interaction score,[36],0.9
same,interaction score,[37],0.394
same,interaction score,[38],-0.0173
same,interaction score,[39],-0.729
same,interaction score,[40],-0.55
same,interaction score,[41],-0.016
same,interaction score,[42],-1.65
same,interaction score,[43],-0.765
same,interaction score,[44],-0.0712
same,interaction score,[45],-0.32
